Data published in publication PMC4839565, “Evolution of Telomeres in Schizosaccharomyces pombe and Its Possible Relationship to the Diversification of Telomere Binding Proteins”.

T1: Taz1p (6HN-Taz1) (Schizosaccharomyces pombe, UniProt P79005 2-663)
T1 sequence: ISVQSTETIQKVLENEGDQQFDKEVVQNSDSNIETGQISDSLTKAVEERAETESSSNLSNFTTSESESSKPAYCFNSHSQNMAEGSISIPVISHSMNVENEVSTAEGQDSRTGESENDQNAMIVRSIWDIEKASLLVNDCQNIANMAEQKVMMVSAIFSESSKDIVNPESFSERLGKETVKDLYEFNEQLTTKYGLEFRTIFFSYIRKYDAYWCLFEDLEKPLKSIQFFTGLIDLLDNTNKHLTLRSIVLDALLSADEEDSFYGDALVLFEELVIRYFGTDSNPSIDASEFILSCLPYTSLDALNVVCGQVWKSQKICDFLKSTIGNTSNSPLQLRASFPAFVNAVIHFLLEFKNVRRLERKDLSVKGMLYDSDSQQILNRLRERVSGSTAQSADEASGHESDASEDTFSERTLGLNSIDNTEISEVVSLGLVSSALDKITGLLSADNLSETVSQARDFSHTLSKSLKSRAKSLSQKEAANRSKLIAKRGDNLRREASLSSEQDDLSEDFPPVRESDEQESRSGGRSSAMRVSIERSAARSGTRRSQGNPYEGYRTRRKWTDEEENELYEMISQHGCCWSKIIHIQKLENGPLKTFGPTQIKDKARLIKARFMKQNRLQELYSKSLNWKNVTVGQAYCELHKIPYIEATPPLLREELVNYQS

T2: Teb1p (6HN-Teb1) (Schizosaccharomyces pombe, UniProt Q10274 2-390)
T2 sequence: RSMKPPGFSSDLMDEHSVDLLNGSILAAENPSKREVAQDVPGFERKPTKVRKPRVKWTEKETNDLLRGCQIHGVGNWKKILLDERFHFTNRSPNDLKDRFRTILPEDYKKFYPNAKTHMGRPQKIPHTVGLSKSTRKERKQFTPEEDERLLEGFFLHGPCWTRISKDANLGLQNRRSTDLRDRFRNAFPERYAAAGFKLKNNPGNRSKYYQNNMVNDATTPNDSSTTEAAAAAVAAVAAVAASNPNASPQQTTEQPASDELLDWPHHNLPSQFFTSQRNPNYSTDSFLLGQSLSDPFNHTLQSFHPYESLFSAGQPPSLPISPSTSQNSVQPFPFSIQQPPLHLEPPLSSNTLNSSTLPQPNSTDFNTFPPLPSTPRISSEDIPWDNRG


What was measured:
[1] = biological target: T1, Taz1p (6HN-Taz1); assay: fluorescence anisotropy; HNED, 0.1 mM DTT, 25 C; HNE: 20 mM HEPES-NaOH pH 7.5, 1 mM EDTA, 100 mM NaCl (Teb1); HNED = HNE + 0.1 mM DTT (Taz1). FA: 2 nM DNA, 25 C (Teb1/SpTEL 37 C). EMSA: 15 nM DNA, 0.05-4.5 uM; settings: protein: recombinant; tags: N-terminal 6HN; chain copies: 2; EMSA: 5'-32P on strand A; blunt
[2] = biological target: T2, Teb1p (6HN-Teb1); assay: fluorescence anisotropy; HNE, no DTT, 25 C; HNE: 20 mM HEPES-NaOH pH 7.5, 1 mM EDTA, 100 mM NaCl (Teb1); HNED = HNE + 0.1 mM DTT (Taz1). FA: 2 nM DNA, 25 C (Teb1/SpTEL 37 C). EMSA: 15 nM DNA, 0.05-4.5 uM; settings: protein: recombinant; tags: N-terminal 6HN; C-terminal GST removed with PreScission protease (residual site residues); EMSA: 5'-32P on strand A; blunt
[3] = biological target: T2, Teb1p (6HN-Teb1); assay: EMSA; no DTT; almost complete restoration; HNE: 20 mM HEPES-NaOH pH 7.5, 1 mM EDTA, 100 mM NaCl (Teb1); HNED = HNE + 0.1 mM DTT (Taz1). FA: 2 nM DNA, 25 C (Teb1/SpTEL 37 C). EMSA: 15 nM DNA, 0.05-4.5 uM; settings: protein: recombinant; tags: N-terminal 6HN; C-terminal GST removed with PreScission protease (residual site residues); label: 5'-32P on strand A; blunt
[4] = biological target: T2, Teb1p (6HN-Teb1); assay: EMSA; no DTT; HNE: 20 mM HEPES-NaOH pH 7.5, 1 mM EDTA, 100 mM NaCl (Teb1); HNED = HNE + 0.1 mM DTT (Taz1). FA: 2 nM DNA, 25 C (Teb1/SpTEL 37 C). EMSA: 15 nM DNA, 0.05-4.5 uM; settings: protein: recombinant; tags: N-terminal 6HN; C-terminal GST removed with PreScission protease (residual site residues); label: 5'-32P on strand A; blunt
[5] = biological target: T2, Teb1p (6HN-Teb1); assay: fluorescence anisotropy; HNE, no DTT, 37 C; HNE: 20 mM HEPES-NaOH pH 7.5, 1 mM EDTA, 100 mM NaCl (Teb1); HNED = HNE + 0.1 mM DTT (Taz1). FA: 2 nM DNA, 25 C (Teb1/SpTEL 37 C). EMSA: 15 nM DNA, 0.05-4.5 uM; settings: protein: recombinant; tags: N-terminal 6HN; C-terminal GST removed with PreScission protease (residual site residues); EMSA: 5'-32P on strand A; blunt

Binder | Kd [1] | Kd [2] | also measured
HsTEL (dsDNA) DNA 1: GTTAGGGTTAGGGTTAG DNA 2: CTAACCCTAACCCTAAC | 54 ± 5 nM | 31 ± 5 nM | –
HisBoxFlankPart (dsDNA) DNA 1: AGGGTTAGGGTTACAGC DNA 2: GCTGTAACCCTAACCCT | – | – | binding result [3]: binds
HisBoxMut (dsDNA) DNA 1: AGGGTGTGAGTTGTGAT DNA 2: ATCACAACTCACACCCT | – | – | binding result [4]: no binding
SpTEL (dsDNA) DNA 1: TTACAGGGGGTTACAGGG DNA 2: CCCTGTAACCCCCTGTAA | 115 ± 9 nM | – | Kd [5]: 380 ± 30 nM
HisBox (dsDNA) DNA 1: AGGGTTAGGGTTGTGAT DNA 2: ATCACAACCCTAACCCT | 380 ± 50 nM | 53 ± 6 nM | –
